Substrate in the data set: CN1/C(=C/c2cc[n+](CCCCCC(=O)NCCOCCOCCOCCNCc3c[nH]c4nc(N)[nH]c(=O)c34)c3ccccc23)Sc2ccccc21
The experiment in a line: Estimation of PreQ1-TO substrate kinetics with ECY-A1 catalyzed by TGT. It counts as biochemical, E. coli. The following applies: other: estimated from initial rates by fluorescence, 10 μM ECY-A1, 100 nM TGT, 37° C. As to the method:
Estimation of PreQ1-TO substrate kinetics with ECY-A1. An estimation of PreQ1-TO substrate kinetics with ECY-A 1 was performed under similar concentrations and conditions to that found from previous kinetic analyses using radiolabeled substrates.^2 A triplicate set of 20 μL reactions was analyzed using a Tecan Saphire-II plate reader in a Greiner 384 well flat bottom plate (VWR, CAT# 89089−584). Each well was prepped with 10 μM ECY-A 1 and a variable amount (from 100 μM to 10 nM in serial ⅓ dilutions) of PreQ1-TO in TGT reaction buffer. The plate was covered and allowed to warm up to 37° C. for 10 minutes. […] Each well was then covered with 10 μL of light mineral oil (to prevent evaporation of water) and the plate was immediately subjected to a fluorescence reading for the first kinetic time point at 37° C. Each well was monitored with an excitation of 501 nm and emission of 531. […] The gain was held fixed and the integration time set to 1 second with 10 reads averaged to each data point collected. The sample was monitored for 30 minutes at 37° C. with a reading taken every 2 minutes. The data was worked up using an ECY-A1-PreQ1-TO calibration curve to convert fluorescence into concentration of product in each sample for each time point to achieve an estimation of the initial rate of each reaction in M^−1/s^−1. […] This curve was analyzed with Graph Pad Prism v. […]

B1: bacterial (E.coli) tRNA guanine transglycosylase (TGT) (Escherichia coli K-12) (protein)
chain: MKFELDTTDGRARRGRLVFDRGVVETPCFMPVGTYGTVKGMTPEEVEATGAQIILGNTFHLWLRPGQEIMKLHGDLHDFMQWKGPILTDSGGFQVFSLGDIRKITEQGVHFRNPINGDPIFLDPEKSMEIQYDLGSDIVMIFDECTPYPADWDYAKRSMEMSLRWAKRSRERFDSLGNKNALFGIIQGSVYEDLRDISVKGLVDIGFDGYAVGGLAVGEPKADMHRILEHVCPQIPADKPRYLMGVGKPEDLVEGVRRGIDMFDCVMPTRNARNGHLFVTDGVVKIRNAKYKSDTGPLDPECDCYTCRNYSRAYLHHLDRCNEILGARLNTIHNLRYYQRLMAGLRKAIEEGKLESFVTDFYQRQGREVPPLNVDHHHHHH
notes: His6 (C); made in house; host or cells: E. coli BL21
Take B1: the Km is 9.8 µM and the kcat is 0.0016 s⁻¹.

Broadly, the Km is the substrate concentration at which the rate is half of its maximum. Broadly, the kcat is the number of substrate molecules converted per active site and unit of time at saturation.

The values are drawn from patent publication US11267842B2, “Enzymatic modification of nucleic acids” (The Regents of the University of California, priority 2015, dated 2022).
